Series [1] has as its system T1, CCC[C@H](NC(=O)[C@H](C)NC(=O)[C@H](Cc1ccc(O)cc1)NC(=O)[C@@H]1CCCN1C(=O)[C@H](CCCCN)NC(=O)[C@@H]1CCCN1C(=O)[C@H](CCCNC(=N)N)NC(=O)Cc1cc(=O)oc2cc(OC)ccc12)C(=O)N[C@@H](Cc1c[nH]c2ccccc12)C(=O)N[C@@H](CCSC)C(=O)N[C@@H](CCCCNc1ccc([N+](=O)[O-])cc1[N+](=O)[O-])C(N)=O.
T1 construct: made in house; host or cells: native secreted protein purified from culture medium of human rheumatoid synovial cells
The experiment in a line: Fluorometric hydrolysis of synthetic Mca/Lys(Dnp) substrates by MMP-3. To be noted: other: MMP-3, 37° C., pH 7.5; 37.0 °C. It counts as biochemical, human. The source says:
(§1) All MMPs were purified in zymogen form. ProMMP-1 (Suzuki et al., Biochem., 29, 10261 (1990)), proMMP-2 (Okada et al., Eur. J. Biochem., 194, 721 (1990)), and proMMP-3 (Ito et al., Arch. Biochem. Biophys., 267, 211 (1988)) were purified from the culture medium of human rheumatoid synovial cells stimulated with rabbit macrophage-conditioned medium. ProMMP-9 was purified from the culture medium of HT-1080 cells as described in Morodomi et al., Biochem. J., 285, 603 (1992). ProMMP-2 and proMMP-9 were activated by reacting with 1 mM 4-aminophenylmercuric acetate at 37° C. for 45 minutes and 32 hours, respectively. ProMMP-1 was activated by reacting with 1 mM 4-aminophenylmercuric acetate and an equimolar amount of MMP-3 at 37° C. for 6 hours. After activation, MMP-3 was completely removed from MMP-1 by affinity chromatography using an anti-MMP-3 IgG Affi-Gel 10 column. The resin, Affi-Gel 10 (Biorad, Emoryville, Calif.), was coupled to anti-MMP-3 IgG (Okada et al., Annals of Rheumat. Dis., 48, 645 (1989)) per the manufacturer's protocol. Pro-MMP-3 was activated by reacting with 5 μg/mL chymotrypsin at 37° C. for 2 hours. Chymotrypsin was inactivated with 2 mM diisopropylfluorophosphate. The amounts of active MMP-1, MMP-2, and MMP-3 were determined by titration with tissue inhibitor of metalloproteinase-1(TIMP1) over a concentration range of 0.1-3 μg/mL, while the amount of active MMP-9 was determined by titration with TIMP-2 (0.1-3 μg/mL). TIMP-1 was isolated from the medium of HT-1080 cells as described in Morodomi et al., Biochem J., 285, 603 (1992).
(§2) Substrates were prepared as 10 mM stock solutions in dimethylsulfoxide (DMSO). Fluorescent assays were performed at λex =325 nm and λem =393 nm, which should encounter no interference from Trp residues, using a Hitachi fluorescence spectrophotometer F-3010. Initial total hydrolysis assays were run at a substrate concentration of […] to avoid filtering effects. The change in fluorescence at this concentration was 110 based on total hydrolysis of 1 μM substrate. A typical assay was carried out by incubating 100 μL of various concentrations of a substrate with 10 μL of an enzyme solution (2-20 nM) in 50 mM Tris-HCl, pH 7.5, 0.15M NaCl, 10 mM CaCl2, 0.05% Brij 35, 0.02% NaN3. The reaction was stopped by addition of 900 μl of 3% (v/v) glacial acetic acid. MMP-3 activity at pH 6.0 was measured in 50 mM sodium acetate buffer, pH 6.0, instead of Tris-HCl buffer. The amount of substrate hydrolysis was calculated based on the fluorescence values of the Mca-Arg-Pro-Lys-Pro-Gln standard solution after substraction of the reaction blank value (stopping solution added before the enzyme). Individual kinetic parameters (kcat and KM) were determined over a substrate concentration range of 2.5-75 μM and calculated by double reciprocal plots.

Series [2] has as its system T2, CCC[C@H](NC(=O)[C@H](CCC(=O)O)NC(=O)[C@@H](NC(=O)[C@@H]1CCCN1C(=O)[C@H](CCCCN)NC(=O)[C@@H]1CCCN1C(=O)[C@H](CCCNC(=N)N)NC(=O)Cc1cc(=O)oc2cc(OC)ccc12)C(C)C)C(=O)N[C@@H](Cc1c[nH]c2ccccc12)C(=O)N[C@@H](CCCNC(=N)N)C(=O)N[C@@H](CCCCNc1ccc([N+](=O)[O-])cc1[N+](=O)[O-])C(N)=O.
T2 construct: made in house; host or cells: native secreted protein purified from culture medium of human rheumatoid synovial cells
Described as above. Type of series: biochemical, human.
Source text: as §1, §2

Series [3] relates to T3, COc1ccc2c(CC(=O)N3CCC[C@H]3C(=O)N[C@@H](CCCCN)C(=O)N3CCC[C@H]3C(=O)N[C@@H](CCC(N)=O)C(=O)N[C@@H](CCC(N)=O)C(=O)N[C@@H](Cc3ccccc3)C(=O)N[C@@H](Cc3ccccc3)C(=O)NCC(=O)N[C@@H](CC(C)C)C(=O)N[C@@H](CCCCNc3ccc([N+](=O)[O-])cc3[N+](=O)[O-])C(=O)NCC(=O)O)cc(=O)oc2c1.
T3 construct: made in house; host or cells: native secreted protein purified from culture medium of human rheumatoid synovial cells
The description is as above. It counts as biochemical, human. The note with it: other: MMP-3, 37° C., pH 7.5; 37.0 °C.
Source text: as §1, §2

The test system of series [4] is T4, CCC[C@H](NC(=O)[C@H](C)NC(=O)[C@H](Cc1ccc(O)cc1)NC(=O)[C@@H]1CCCN1C(=O)[C@H](CCCCN)NC(=O)[C@@H]1CCCN1C(=O)[C@H](CCCNC(=N)N)NC(=O)Cc1cc(=O)oc2cc(OC)ccc12)C(=O)N[C@@H](Cc1c[nH]c2ccccc12)C(=O)N[C@@H](CCSC)C(=O)N[C@@H](CCCCNc1ccc([N+](=O)[O-])cc1[N+](=O)[O-])C(N)=O.
T4 construct: made in house; host or cells: native secreted protein purified from culture medium of HT-1080 cells
The experiment in a line: Fluorometric hydrolysis of synthetic Mca/Lys(Dnp) substrates by MMP-9. Type of series: biochemical. The note with it: other: MMP-9, 37° C., pH 7.5.
Source text: as §1, §2

Series [5] deals with T5, CCC[C@H](NC(=O)[C@H](CCC(=O)O)NC(=O)[C@@H](NC(=O)[C@@H]1CCCN1C(=O)[C@H](CCCCN)NC(=O)[C@@H]1CCCN1C(=O)[C@H](CCCNC(=N)N)NC(=O)Cc1cc(=O)oc2cc(OC)ccc12)C(C)C)C(=O)N[C@@H](Cc1c[nH]c2ccccc12)C(=O)N[C@@H](CCCNC(=N)N)C(=O)N[C@@H](CCCCNc1ccc([N+](=O)[O-])cc1[N+](=O)[O-])C(N)=O.
T5 construct: made in house; host or cells: native secreted protein purified from culture medium of HT-1080 cells
Described as above. It counts as biochemical. To be noted: other: MMP-9, 37° C., pH 7.5.
Source text: as §1, §2

Series [6] has as its system T6, COc1ccc2c(CC(=O)N3CCC[C@H]3C(=O)N[C@@H](CCCCN)C(=O)N3CCC[C@H]3C(=O)N[C@@H](CCC(N)=O)C(=O)N[C@@H](CCC(N)=O)C(=O)N[C@@H](Cc3ccccc3)C(=O)N[C@@H](Cc3ccccc3)C(=O)NCC(=O)N[C@@H](CC(C)C)C(=O)N[C@@H](CCCCNc3ccc([N+](=O)[O-])cc3[N+](=O)[O-])C(=O)NCC(=O)O)cc(=O)oc2c1.
T6 construct: made in house; host or cells: native secreted protein purified from culture medium of HT-1080 cells
The description is as above. Type of series: biochemical. To be noted: other: MMP-9, 37° C., pH 7.5.
Source text: as §1, §2

Where [7] appears, read: other: MMP-3, 25° C., pH 7.5, 25.0 °C.
The mark [8] stands for this setting: other: MMP-3, 37° C., pH 7.5, 37.0 °C.
The mark [9] stands for this setting: other: MMP-3, pH 6.0 (50 mM sodium acetate buffer), 37° C., pH 6.0, 37.0 °C.

MMP-9 (Homo sapiens), sequence (chain, as listed by the source): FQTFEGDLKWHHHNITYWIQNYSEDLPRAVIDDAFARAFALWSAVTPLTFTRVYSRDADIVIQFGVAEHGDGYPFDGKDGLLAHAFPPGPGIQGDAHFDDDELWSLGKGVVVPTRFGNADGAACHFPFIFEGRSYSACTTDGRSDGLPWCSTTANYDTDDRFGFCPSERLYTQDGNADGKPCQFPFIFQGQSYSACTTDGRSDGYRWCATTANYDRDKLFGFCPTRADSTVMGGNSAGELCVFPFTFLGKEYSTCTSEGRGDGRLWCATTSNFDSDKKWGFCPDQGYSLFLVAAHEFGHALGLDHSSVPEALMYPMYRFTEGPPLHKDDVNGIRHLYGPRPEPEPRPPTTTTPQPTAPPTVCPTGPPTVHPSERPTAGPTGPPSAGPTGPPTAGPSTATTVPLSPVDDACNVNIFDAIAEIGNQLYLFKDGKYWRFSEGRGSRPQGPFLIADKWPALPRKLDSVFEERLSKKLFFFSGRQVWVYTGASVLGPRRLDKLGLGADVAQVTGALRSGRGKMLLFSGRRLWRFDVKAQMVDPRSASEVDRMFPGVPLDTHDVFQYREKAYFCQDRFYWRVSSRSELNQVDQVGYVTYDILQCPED
MMP-3 (Homo sapiens), sequence (chain, as listed by the source): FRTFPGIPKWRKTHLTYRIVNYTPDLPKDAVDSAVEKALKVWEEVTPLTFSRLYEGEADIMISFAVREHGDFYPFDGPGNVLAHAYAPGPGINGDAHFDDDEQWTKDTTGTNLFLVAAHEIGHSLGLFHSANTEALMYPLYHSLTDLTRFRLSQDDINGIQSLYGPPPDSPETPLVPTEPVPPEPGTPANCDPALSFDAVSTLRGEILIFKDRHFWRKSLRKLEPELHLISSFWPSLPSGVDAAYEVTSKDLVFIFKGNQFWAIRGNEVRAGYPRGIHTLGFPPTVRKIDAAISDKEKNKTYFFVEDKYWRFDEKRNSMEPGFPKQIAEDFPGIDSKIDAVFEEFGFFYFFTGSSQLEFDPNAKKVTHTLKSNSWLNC

As to MMP-3 (Homo sapiens), the Km in series [1] was found to be 66 µM; in series [2] (setting [7]), 20 µM; in series [2] (setting [8]), 25 µM; in series [2] (setting [9]), 7.5 µM; in series [3], 50 µM. The kcat is listed as 3.95 S^-1 in series [1]; 1.31 S^-1 in series [2] (setting [7]); 5.40 S^-1 in series [2] (setting [8]); 2.20 S^-1 in series [2] (setting [9]); 0.53 S^-1 in series [3]. In addition, the kcat/Km is on record as 59,400 S^-1 M^-1 in series [1]; 65,700 S^-1 M^-1 in series [2] (setting [7]); 218,000 S^-1 M^-1 in series [2] (setting [8]); 302,000 S^-1 M^-1 in series [2] (setting [9]); 10,900 S^-1 M^-1 in series [3].
On to MMP-9 (Homo sapiens), for which, in series [4], the Km is 25 µM, the kcat is given as 1.38 S^-1 and the kcat/Km is listed as 55,300 S^-1 M^-1. In addition, in series [5], the Km amounted to 28 µM, the kcat stood at 0.282 S^-1 and the kcat/Km is given as 10,100 S^-1 M^-1. Moreover, in series [6], the Michaelis constant (Km) worked out at 45 µM, the kcat is given as 0.18 S^-1 and the kcat/Km is reported as 4,000 S^-1 M^-1.

Usually Km stands for the concentration of substrate that gives half-maximal velocity.
